B1: GFD-SMB/mFc (disulphide-linked homodimer) (Fc fusion)
chain: SNELHQVPSNCDCLNGGTCVSNKYFSNIHWCNCPKKFGGQHCEIDKSKTGGGGSGGGGSGGGGQESCKGRCTEGFNVDKKCQCDELCSYYQSCCTDYTAECKPGSGLEAGAGPRDCGCKPCICTVPEVSSVFIFPPKPKDVLTITLTPKVTCVVVDISKDDPEVQFSWFVDDVEVHTAQTKPREEQFNSTFRSVSELPIMHQDWLNGKEFKCRVNSAAFPAPIEKTISKTKGRPKAPQVYTIPPPKEQMAKDKVSLTCMITDFFPEDITVEWQWNGQPAENYKNTQPIMDTDGSYFVYSKLNVQKSNWEAGNTFTCSVLHEGLHNHHTEKSLSHSPGK
B2: SMB-GFD/mFc (disulphide-linked homodimer) (Fc fusion)
chain: DQESCKGRCTEGFNVDKKCQCDELCSYYQSCCTDYTAECKPGGGGSGGGGSGGGGPSNCDCLNGGTCVSNKYFSNIHWCNCPKKFGGQHCEIDKSKGSGLEAGAGPRDCGCKPCICTVPEVSSVFIFPPKPKDVLTITLTPKVTCVVVDISKDDPEVQFSWFVDDVEVHTAQTKPREEQFNSTFRSVSELPIMHQDWLNGKEFKCRVNSAAFPAPIEKTISKTKGRPKAPQVYTIPPPKEQMAKDKVSLTCMITDFFPEDITVEWQWNGQPAENYKNTQPIMDTDGSYFVYSKLNVQKSNWEAGNTFTCSVLHEGLHNHHTEKSLSHSPGK

Target: human uPAR on 293/uPAR cells (human) (UniProt Q03405)
Sequence (Q03405 23-305): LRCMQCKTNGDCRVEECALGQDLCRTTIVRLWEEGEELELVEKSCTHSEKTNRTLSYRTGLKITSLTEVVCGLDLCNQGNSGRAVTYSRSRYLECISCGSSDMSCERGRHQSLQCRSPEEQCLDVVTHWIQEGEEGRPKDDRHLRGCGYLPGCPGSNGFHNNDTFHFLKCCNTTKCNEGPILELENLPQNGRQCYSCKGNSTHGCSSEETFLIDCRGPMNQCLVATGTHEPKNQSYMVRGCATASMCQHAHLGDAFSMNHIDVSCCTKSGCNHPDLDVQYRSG
Assay: cell-based or functional assay

Row | Binder | IC50, inhibition of 293/uPAR cell adhesion to VN (RTCA impedance, 1 h after addition) [nM] | maximal inhibition of 293/uPAR cell adhesion to VN [%]
1 | B1 | 20 | 60
2 | B2 | 6.3 | 60

Source: patent US20130280162A1
